From patent US7592156B2, “Synthetic dog/human chimeric C-C chemokine receptor 2B” (Wyeth, priority 2006, dated 2009) come the findings set out here.

In general, EC50 refers to the midpoint of the concentration-response curve.

The target in test [1] is T1, chimeric dog-human CCR2B (Homo sapiens, UniProt P41597, A111V/A286I/C181V/C75S/D36S/E105G/E278K/F108L/F271S/G175R/G191S/G197A/G224A/G273N/G41A/I128T/I163V/I208V/I217V/I263L/I300V/I40V/I93L/K180T/K183I/K38R/L115S/L166M/L274V/L76M/L95I/L97F/N110E/N199K/N207S/N266S/P195Q/Q43G/R196Q/R240K/R243K/S101Y/T247V/T257A/T287M/V107L/V162G/V173L/V187F/V189S/V244L/Y188S/Y193Q/Y259N).
T1 construct: expressed in transfected cells
T1 sequence (P41597 1-360 isoform P41597-2 D36S/K38R/I40V/G41A/Q43G/C75S/L76M/I93L/L95I/L97F/S101Y/E105G/V107L/F108L/N110E/A111V/L115S/I128T/V162G/I163V/L166M/V173L/G175R/K180T/C181V/K183I/V187F/Y188S/V189S/G191S/Y193Q/P195Q/R196Q/G197A/N199K/N207S/I208V/I217V/G224A/R240K/R243K/V244L/T247V/T257A/Y259N/I263L/N266S/F271S/G273N/L274V/E278K/A286I/T287M/I300V): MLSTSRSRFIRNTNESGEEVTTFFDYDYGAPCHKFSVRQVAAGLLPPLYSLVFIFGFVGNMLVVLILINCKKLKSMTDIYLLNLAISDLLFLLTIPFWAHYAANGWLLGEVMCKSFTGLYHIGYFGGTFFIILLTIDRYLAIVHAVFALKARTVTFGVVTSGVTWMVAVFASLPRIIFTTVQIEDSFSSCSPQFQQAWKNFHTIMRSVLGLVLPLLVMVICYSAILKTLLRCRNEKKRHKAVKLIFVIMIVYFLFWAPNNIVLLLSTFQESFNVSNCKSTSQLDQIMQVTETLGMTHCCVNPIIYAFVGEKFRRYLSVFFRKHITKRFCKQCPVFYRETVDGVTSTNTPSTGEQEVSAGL
Description: FLIPR calcium mobilization agonist assay in CHO-K1 cells expressing chimeric dog-human CCR2B. Type of test: cell-based. On the procedure: The chimeric CCR2B/cDNA3.1 plasmid of Example 1 was expressed in CHO-K1 cells using the Lipofectamine-Plus reagent (Invitrogen, Carlsbad, Calif., USA) according to manufacturer's instructions, and the resulting stable cell lines following selection with the antibiotic G418 were assayed for MCP-1-dependent calcium mobilization in a FLIPR assay. Cells were plated at 15,000 per well in a 384-well assay plate one day prior to assay. Calcium-3 indicator dye (Molecular Devices, Sunnyvale, Calif., USA) was added 1 hr prior to assay, and cells were incubated at 37° C. For the agonist assay, human MCP-1 was added to cells, followed immediately by reading of calcium mobilization on the FLIPR. RFU counts (Max-Min) were recorded for each MCP-1 concentration assayed. For the antagonist assay, the antagonist was added to the cells 20 min prior to addition of MCP-1. The MCP-1 activation of calcium mobilization in CCR2B/CHOK1 cells of Example 2 was extended to include examination of the effects of mouse and canine MCP-1 (FIG. 4A). […] The qualitative similarity of the results in the CHOK1 cells expressing the chimeric receptor and THP-1 cells, with their endogenous expression of the human receptor, lends evidence that the chimeric receptor faithfully recapitulates the activation pharmacology of the native receptor.
For orientation: Calcium assays in cells follow changes in intracellular calcium, usually with a dye or a luminescent sensor.

For test [2], the target named is T2, human CCR2B (Homo sapiens, UniProt P41597).
T2 construct: THP-1 cells, with their endogenous expression of the human receptor; endogenous in cells; host or cells: THP-1 (human monocyte cell line)
T2 sequence (P41597 1-360 isoform P41597-2): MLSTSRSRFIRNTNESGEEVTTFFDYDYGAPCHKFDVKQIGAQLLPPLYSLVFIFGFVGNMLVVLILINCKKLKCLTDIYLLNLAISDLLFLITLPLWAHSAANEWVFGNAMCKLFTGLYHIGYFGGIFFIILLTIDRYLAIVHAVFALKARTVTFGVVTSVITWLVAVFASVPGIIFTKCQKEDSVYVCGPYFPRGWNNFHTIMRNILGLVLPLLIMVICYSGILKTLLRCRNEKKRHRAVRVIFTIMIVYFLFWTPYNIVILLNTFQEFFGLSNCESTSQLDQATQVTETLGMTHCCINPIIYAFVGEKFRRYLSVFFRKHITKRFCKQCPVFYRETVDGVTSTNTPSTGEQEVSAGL
Description: FLIPR calcium mobilization agonist assay in THP-1 cells. The note with it: endogenous human CCR2B expression. In kind it is cell-based.

Take “mouse MCP: mouse monocyte chemoattractant protein-1 (chemokine)”: the 50% effective concentration (EC50) amounted to 38 nM in test [1] and 30 nM in test [2].
On to “cMCP-1: canine monocyte chemoattractant protein-1 (chemokine)”, for which the half-maximal effective concentration (EC50) in test [1] turned out to be 138 nM; in test [2], 53 nM.
